Drawing on the RNAGym collection of RNA variant scans (doi:10.7554/elife.80360), this text covers self-cleavage for 64 variants.

Sequences and labels used below:
B1: HDV Ribozyme (parent)
chain: GGCCGGCAUGGUCCCAGCCUCCUCGCUGGCGCCGGCUGGGCAACAUUCCGAGGGGACCGUCCCCUCGGUAAUGGCGAAUGGGACCCA

In this data set the parent is B1. As to the kind of experiment: self-cleavage, relative activity (ratio to wild type); higher = more cleavage; co-transcriptional.
As to GGCCGGCAUGGUCCCAGCCUCCUCGCUGGCGCCGGCUGGGCAACAUUCCGAGGGGACCGUCCCCUGGGUAUUGGCGAAUGGGACCCA, the self-cleavage was 1.01. Next, GGCCGGCAUGGUCCCAGCCUCUUCGCUGGCGCCGGCUGGGCGACAUUCCGAGGGGACCGUCCCCUCGGUAAUGGCGAAUGGGACCCA: 0.0755. Next, GGCCGGCAUGGUCCCAGCCUCCUCGCUGACGCCGGCUGGGCAACAUUCCGAGGGGACCGUCCCCUCGGUAAUGGCGAAUGGCACCCA: 0.0627. To GGCCGGCAUGGUCCCAGCCUACUCGCUGGCGCCGGCUGGGAAACAUUCCGAGGGGACCGUCCCCUCGGUAAUGGCGAAUGGGACCCA belongs 0.121; to GGCCGGGAUGGUCCCAGCCUCCUCGCUGGCGCCGGCUGGGCAACAUUCCGAGGGGACCGUCCUCUCGGUAAUGGCGAAUGGGACCCA, 0.674. GGCCGGAAUGGUCCCAGCCUCCUCGCUGGCGCCGGCUGGGCAACAUUCCGAGGGGACCGUCCCCUCGGUAAUGGCGAAUAGGACCCA: the self-cleavage is 0.0739. As for GGCCGGCAUGGACCCAGCCUCCUCGCUGGCGCCGGCUGGGCAACAUUCCGAGGGGACCGUCCUCUCGGUAAUGGCGAAUGGGACCCA, the self-cleavage was 0.453.

With GGCCGGCAUGGUCCCAGCCUCCUCGCUGCCGCCGGCUGGGCAACAUUCCGAGGGGACCGUCCCGUCGGUAAUGGCGAAUGGGACCCA, the self-cleavage was 0.095.

For the variant GGCCGGCAUGGUCCCAUCCUCCUCGCUGGCGCGGGCUGGGCAACAUUCCGAGGGGACCGUCCCCUCGGUAAUGGCGAAUGGGACCCA, the self-cleavage amounted to 0.0831. Next, GGCCGGUAUGGUACCAGCCUCCUCGCUGGCGCCGGCUGGGCAACAUUCCGAGGGGACCGUCCCCUCGGUAAUGGCGAAUGGGACCCA: 0.124. To GGCCGGCAUGGUCCCAGCCCCCUCGCUGGCGCCGGCUGGGCAACAUUCCGAGGGGACCGUCCCCUCGUUAAUGGCGAAUGGGACCCA belongs 0.145. Next, GGCCGGCAUGGUCCCAGCCUCCUCGCUGGCGCCGGCUGGACAACGUUCCGAGGGGACCGUCCCCUCGGUAAUGGCGAAUGGGACCCA: 0.815; GGCCAGCAUGGUCCCAGCCUCCUCGCUGGCGCCGGCUGGGUAACAUUCCGAGGGGACCGUCCCCUCGGUAAUGGCGAAUGGGACCCA: 0.277; GGCCGGCAUGGUUCCAGCCUCCUCGCUGGCGCCGGCUGGGCAACAUUCCGAGGGGACCGUCCCCUCGGUAAUGGUGAAUGGGACCCA: 0.0314. With GGCCGGCAUGGUCCCAGCCUCCUCGCUGGCGCCGGCUGGGCAACAUUCCGAGGGGACCGUCGCCUCGGUUAUGGCGAAUGGGACCCA, the self-cleavage was 0.665. Next, GGCCGGCAUGGUCCCUGCCUCCUCGCUGGCGCCGGCUGGGCAACAUUCCGAGGGGACCGUCCCCUCGUUAAUGGCGAAUGGGACCCA: 1.18; GGCCGGCAUGGUCCCAGCCUCCUCGCUGGCGCCGGCUGGGGAACAUUCCGAGGGGACCGUCCCCUCGGUAAUGGCGAAUGCGACCCA: 0.138; GGCCGGCAUGGUCCCAGCCUCCUCGCUGGCGCCGGCUGGGCAACAUUCCGAGGGUACCGUCCCCUCGGUAAUGGCGAAUGCGACCCA: 0.106. To GGCCGGCAUGGUCCCAGCCUCCUCGCGGGCGCCGGCUGGGCAAGAUUCCGAGGGGACCGUCCCCUCGGUAAUGGCGAAUGGGACCCA belongs 0.598; to GGCCGGCAUGGUCCCAGCCUCCUUGCUGGCGCCGGCUGGGCAACAUUCCGAGGGCACCGUCCCCUCGGUAAUGGCGAAUGGGACCCA, 0.729. To GGCCGGCAUGGUCCCAGCCUCCUCGCUGGCGCCGGCUGGGCAACAUUCCGAGGGGACCGACCCGUCGGUAAUGGCGAAUGGGACCCA belongs 0.954; to GGCCGGCAUGGUCCCAGCCUCCUCGCUGGCGCCGGCUGGGCAACAUUCCGAGGGGACCGUCCCCUCGGUAAUGACGAAAGGGACCCA, 0.0852. As for GGCCGGCAUGGUCCCAGCCUCCUCGCUGGCGCCGGCUGGGCAACAUUCCGAGGGGACCGUCCCCUCGGUAAUGGCGAAUGGGACCGA, the self-cleavage came to 0.983. Take GGCCGGCAUGGUCCAAGCCUCCUCGCUGGCGCCGGCUGGGCAACAUUCCGAGGAGACCGUCCCCUCGGUAAUGGCGAAUGGGACCCA: the self-cleavage stood at 0.504. Next, GGCCGGCAUGGUCCCGGCCCCCUCGCUGGCGCCGGCUGGGCAACAUUCCGAGGGGACCGUCCCCUCGGUAAUGGCGAAUGGGACCCA: 0.128. As for GGCCGGCAUGGUCCCAGCCUCCUCGCUGGCGCGGGCUGGGCAACAUUACGAGGGGACCGUCCCCUCGGUAAUGGCGAAUGGGACCCA, the self-cleavage came out at 0.

In the case of GGCCGGCAUGGUCCAAGCCUCCUCGCUGGCGCCGGUUGGGCAACAUUCCGAGGGGACCGUCCCCUCGGUAAUGGCGAAUGGGACCCA, the self-cleavage is 0.253. Next, UGCCGGCAUGGUCCCAGCCUCCUGGCUGGCGCCGGCUGGGCAACAUUCCGAGGGGACCGUCCCCUCGGUAAUGGCGAAUGGGACCCA: 0.447. Next, GCCCGGCAUGGUCCCAGCCUCCUCGCUGGCGCCGGCUGGGCAACAUUCCGAGGGGACCGUCGCCUCGGUAAUGGCGAAUGGGACCCA: 0.0852. Next, GGCCGGCAUGGUCCCAGCCUCCUCGCUGGCGCCGGCUGGGCAACAUUCCGAGGGGACCGUCCCCUCGGUAAUGGCGAAUGGAACUCA: 0.495; GGCCGGCAUGGUCCCAGACUCCUCGCUGGCGCCGGCUGGGCAACAUUCCGAGGGGACCGUACCCUCGGUAAUGGCGAAUGGGACCCA: 0.0615; GGCCGGCAUGGGCCCAGCCUCCUCGCUGGCGCCGGCUGGGCAACAUUCCGAGGGGACCGUCCCCUCGGAAAUGGCGAAUGGGACCCA: 0.997. Turning to GGCCGGCAUGGUCCCAGCCUCCUCGCUGGCGCCGGCUGUGCAACAUUCCGAGGGGACCGUCCCCUCCGUAAUGGCGAAUGGGACCCA, the self-cleavage is 0.746. Next, GGCCGGCAUGGUCCCAGCCUCCUCGCUGGCGCUGGCUGGGCAACAUUCCGAGGGGACCGUCCACUCGGUAAUGGCGAAUGGGACCCA: 0.716; GGCCGGCAUGGUUCCAGCCUCCUCGCUGGCUCCGGCUGGGCAACAUUCCGAGGGGACCGUCCCCUCGGUAAUGGCGAAUGGGACCCA: 0.185.

For GGCCGGCAUGGUCCCAGCCUCCUCGCUGGCGCCGUCUGGGCAACAUUCCGAGGGGACCGUCCCCUCGGUAAUGGCGAUUGGGACCCA, the self-cleavage was 0.0545. Next, GGCCGGCAUGGUCCCAACCUCCUCGCUGGCGCCGGCUGGGCAACAUUCCGAGGGGACCGUCCCCUCGGUAAUGGCGAAUGGGACCCU: 0.708; GGCCGGCAUGGUCCCAGCCUCCUCGCUGGCCCCGGUUGGGCAACAUUCCGAGGGGACCGUCCCCUCGGUAAUGGCGAAUGGGACCCA: 0.0978. GGCCGGCUUGGUCCCAGCAUCCUCGCUGGCGCCGGCUGGGCAACAUUCCGAGGGGACCGUCCCCUCGGUAAUGGCGAAUGGGACCCA: the self-cleavage was determined as 0. To GGCCGGCAUGGUCCCAGCCUCCUCGCUGGCGCCGGCUGGGCAACCUUCCGAGGGGACCGUCCCCUCGGUAAUGGCGAAUGGGACCUA belongs 0.779.

As for GGCCGGCAUGGUCCCAGCCUCCUCGCUGGCGACGGCUGGGCAACAUUCCGAGGGGACCGUCCCCUCGGUGAUGGCGAAUGGGACCCA, the self-cleavage came out at 0.285.

GGCCGGCAUGGUCCCAGCCUCCUCGCUGGCGCCGGCUGGGCAACAUUCUGAGGGGACCGUCUCCUCGGUAAUGGCGAAUGGGACCCA: the self-cleavage amounted to 1.17. On to GGCCGGCAUGGUCCCAGCCUCCUCGCUGGCGCCGGAUGGGCAACAUUCCGAGGGGACCGUCCCCUCGGUAAGGGCGAAUGGGACCCA, for which the self-cleavage is 0.0978. Take GGCCGGCAUGGUCCUAGCCUCCUCGCUGGCGCCGGCUGAGCAACAUUCCGAGGGGACCGUCCCCUCGGUAAUGGCGAAUGGGACCCA: the self-cleavage is 0.151. With GGCCGGCAUGGUCCCAGCCUCCUCGCUGGCGCCGGCUGGGCAACAUUCCGAUGGGACCGUCCCUUCGGUAAUGGCGAAUGGGACCCA, the self-cleavage came to 0.881.

In the case of GGCCGGCAUGGUCCCAGCCUCAUCGCUGGCGCCGGCUGGGCAACAUUCCGAGGGGACCGUCCUCUCGGUAAUGGCGAAUGGGACCCA, the self-cleavage was determined as 0.157. To GGCCGGCAUGUUCCCAGCCUCCUCGCUGGCGCCGGCUGGGCAACAUUCCGAGGGGACCGUCCCCUCGGUAAUGGCGAAUGGGACCCG belongs 0.404; to GGCCGGCAGGGUCCCAGCCUCCUCGCUGGCGCCGGCUGGGCAACAUUCCGAGGGGAUCGUCCCCUCGGUAAUGGCGAAUGGGACCCA, 1.03.

With GGCCGGCAUGGUCCCAGCCUCCUCGCUGGCGCCGGCUGCGCAACAUUCCGAGGGGACCGUUCCCUCGGUAAUGGCGAAUGGGACCCA, the self-cleavage came to 0.233. For the variant GGCCGGCAUUGUCCCAGCCUCCUCGCUGGCGCCGGCUGGGCAACAUUCCGAGGGGACCGUCCCCUCGGUAAUGGCGAAUGGCACCCA, the self-cleavage was 0.089. Next, GGCCGGCAUGGUCCCAGCCUCCUCGCUGGCGCCGGCUGGGCAACAUUCCAAGGGGACCGUCCCCUCGGUAAUGACGAAUGGGACCCA: 0.411. To GGCCGGCAUGGUCCCAGCCUCCUCGCUGGCGCCGGCUGGGCAGCAUUCCGAGGGGACCGUCCACUCGGUAAUGGCGAAUGGGACCCA belongs 0.642. Next, GGCCGGCACGGUCCCAGCCUCCUCGCUGGCGCCGGCUGGGCAACAUUCCGAGGGGACCGUCCCCUCGGUAAUGGCGAAUGGGACCAA: 1.03; GGCCGGCAUGGUCCCAGCCUCCUCGCUGGCGCCGACUGGGCAACAUUCCGAGGGGACCGUCCCCUCGGUAAUGGCGAAUUGGACCCA: 0.151. With GGCCGGCAUGGUCCCAGCCUCCUCGCCGGCGCCGGCUGGGCAACAUUCCGAGGGGACCGUCCUCUCGGUAAUGGCGAAUGGGACCCA, the self-cleavage was determined as 0.73. Next, GGCCGGCAUGGUCCCAGCCUCCUCGCUGGCGCCGGCUGGGCAACAUUUCGAGGGGACCGUCCCCUCGGUAAUGGCUAAUGGGACCCA: 1.15. To GGCGGGCCUGGUCCCAGCCUCCUCGCUGGCGCCGGCUGGGCAACAUUCCGAGGGGACCGUCCCCUCGGUAAUGGCGAAUGGGACCCA belongs 0.0898; to GGCCGGCAUGGUCCCAGCCUCCUCGCUGGCGCCGGCUGGGCUACAUUCCGAGGGGACCGUCCCCUCGGCAAUGGCGAAUGGGACCCA, 0.437. Next, GGCCGGCAUGGUCCCAGCUUCCUCGCUGGCGCCGGCUGGGCAACAUUCCGAGGGGACCGUCCCCUCGGUAAUGGCGAAUGGGAUCCA: 0.0811; GGCCGGCAUGGUCCCAGCCUCCUCGCUGGCGCCGCCUGGGCAACAUGCCGAGGGGACCGUCCCCUCGGUAAUGGCGAAUGGGACCCA: 0.0923; GGCCGCCAUGGUCCCAGCCUCCUCGCUGGCGCCGGCAGGGCAACAUUCCGAGGGGACCGUCCCCUCGGUAAUGGCGAAUGGGACCCA: 0.0791. Take GGCCGGCAUGGUCCCAGCCACCUCGCUGGCGCCGGCUGGGCAACAUUCCGAGGGGACCGUCCCCUCGGUAAUGGCGAACGGGACCCA: the self-cleavage stood at 0. To GGCCGGCAUGGUCCCAGCCUCCUCGCAGGCGCCGGCUGGGCAACAUUCCGAGGGGACCGUCCCCCCGGUAAUGGCGAAUGGGACCCA belongs 0.957. Next, GGCCGGCAUUGUCCCAGCCUCCUCGCUGGCGCCGGCUGGGCAACUUUCCGAGGGGACCGUCCCCUCGGUAAUGGCGAAUGGGACCCA: 0.506.
